{"source": "patent US11180767B2", "about": "“Protease deficient filamentous fungal cells and methods of use thereof” (GLYKOS FINLAND OY, priority 2012, dated 2021)", "key": {"[1]": {"test_system": "proteases in supernatant from the 6-fold protease deletion strain M400", "assay": "Protease stability of proteins spiked into supernatant of the 6-fold protease deletion strain", "assay_type": "biochemical, Trichoderma reesei", "settings": "pepstatin A 50 μM; SBTI 0.2 mg/ml; pH 4.2, 20 hours, 37°C", "protocol": "The protease stability of the model proteins IGF1, hGH, and IFNα2b were analyzed by spiking them into supernatant from the 6-fold protease deletion strain (Δpep1Δtsp1Δslp1Δgap1Δgap2Δpep4) M400. The supernatant was collected from a large shake flask culture CAH15. The undiluted supernatant from the shake flask cultivation CAH15 was incubated with the purified model proteins with and without pepstatin A (50 μM) and SBTI (0.2 mg/ml) inhibitors for 20 hours at 37° C. The 5 day culture supernatant pH was around 4.2. The reaction containing 0.05 μg μl of model protein was sampled after 20 hours. 50 mM sodium citrate pH 4.0 spiked with model proteins (0.05 g 1) was used as a buffer control.\nFrom each reaction 10 μl was loaded into an 18% SDS PAGE gel and run for 30 minutes at 200 V. The proteins in the gel were then transferred to nitrocellulose for immunoblotting. The nitrocellulose membrane was blocked for 1 hour at room temperature with 5% milk in TBST buffer. The individual blots were probed with their specific primary antibody to detect the appropriate model protein for 1 hour at room temperature on a shaker. The mouse anti-IGF1 antibody (R&D systems #mab291) was used at 2 μg/ml diluted in TBST. The mouse anti-rhGH antibody (Abeam #ab51232) was used at 2 μg/ml diluted in TBST. The mouse anti-IFNα2b antibody (Abeam #ab9386) was used at 1 μg/ml diluted in TBST. […]"}, "[2]": {"test_system": "green fluorescent casein", "assay": "Total protease activity of culture supernatants against fluorescent casein", "assay_type": "biochemical", "settings": "1 L fermentor, pH 5.5, casein FL", "protocol": "The total protease activity of culture supernatant from the quadruple deletion strain M307 was then measured and compared with culture supernatants from the triple deletion strain M277 and the wild type strain M124. Each strain was grown in 2 liter shake flasks with 300 ml TrMM containing 40 g/l lactose, 20 g/l spent grain extract, and 100 mM PIPPS at pH 5.5. Day 7 supernatant samples were taken for total protease assay. The total protein concentrations of the supernatants were measured using the BCA assay with bovine immunoglobulin as the standard. The supernatants were diluted serially 1:2 in sodium citrate buffer at pH 5.5. […] The fluorescence was measured after 1 hour at 485 nm excitation and 530 nm emission.\nThe full length antibody yield calculated was 20% higher in the gap1 deletion strain from the day 6 sample. […] From the fermentor supernatants, the total protease activity against casein was measured. […]\nThe protein concentrations were determined from all supernatant samples from day 2-7. […] The fluorescence from the wells was measured after 2, 3, and 4 hours. The readings were done on the Varioskan fluorescent plate reader using 485 nm excitation and 530 nm emission.\nThe protease activity from the cultivations listed in Table 22.4 was measured in order to determine how the total protease activities were affected by the RNAi. […]"}}, "data": [{"molecule": "SBTI: soybean trypsin inhibitor, trypsin and subtilisin inhibitor (protein) DFVLDNEGNPLENGGTYYILSDITAFGGIRAAPTGNERCPLTVVQSRNELDKGIGTIISSPYRIRFIAEGHPLSLKFDSFAVIMLCVGIPTEWSVVEDLPEGPAVKIGENKDAMDGWFRLERVSDDEFNNYKLVFCPQQAEDDKCGDIGISIDHDDGTRRLVVSKNKPLVVQFQKLDKESL", "values": [{"measurement": "stabilisation of hGH, IFNα2b and IGF1 in supernatant", "setting": "[1]", "result": "only a small benefit for product stability"}, {"measurement": "protease activity of M507 culture supplemented with inhibitor", "setting": "[2]", "result": "protease activity also dropped from day 6 until day 8"}]}]}
